Drawing on patent publication US20050282743A1, “Molecular interactions in cells” (Arbor Vita Corporation, priority 2001, published 2005), this text covers Kd and Classification for two molecules.

Test [1] deals with T1, GST-BAI-1 Associated Protein PDZ domain 2 (Mus musculus (Mouse)), Q6RHR9. Briefly: G assay titration, PDZ 1 ug/ml.
In test [2] the target is T2, GST-PSD95 PDZ domain 3 (Homo sapiens).
T2 chain: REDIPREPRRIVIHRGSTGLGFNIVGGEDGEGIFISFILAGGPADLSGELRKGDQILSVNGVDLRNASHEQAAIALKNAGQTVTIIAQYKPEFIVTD
Briefly: G assay titration, PDZ 1 ug/ml.

The target in test [3] is T3, GST-NeDLG PDZ domains 1, 2, Q92796.
T3 chain: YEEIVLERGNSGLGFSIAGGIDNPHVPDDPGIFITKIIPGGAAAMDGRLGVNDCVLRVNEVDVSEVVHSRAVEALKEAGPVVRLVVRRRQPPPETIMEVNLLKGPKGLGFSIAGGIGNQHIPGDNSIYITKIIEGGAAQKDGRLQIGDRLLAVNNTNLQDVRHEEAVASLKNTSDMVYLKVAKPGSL
The experiment in a line: G assay titration, PDZ 1 ug/ml.

In test [4] the target is T4, GST-NeDLG PDZ domain 3 (Mus musculus (Mouse)), P70175.
T4 chain: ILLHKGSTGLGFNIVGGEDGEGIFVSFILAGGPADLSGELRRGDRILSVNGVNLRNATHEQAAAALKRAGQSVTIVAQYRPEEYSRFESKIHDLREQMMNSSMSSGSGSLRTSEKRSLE
Briefly: G' assay. Note: key of the grades not given here.

The target in test [5] is T5, GST-DLG1 PDZ domain 2 (Homo sapiens), Q12959.
T5 chain: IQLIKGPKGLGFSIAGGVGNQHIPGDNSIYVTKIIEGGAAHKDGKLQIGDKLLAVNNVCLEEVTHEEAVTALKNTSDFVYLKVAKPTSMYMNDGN
The experiment in a line: G' assay. Note: key of the grades not given here.

Test [6] has as its target T6, GST-MUPP1 PDZ domain 11 (Homo sapiens (Human)), O75970.
T6 chain: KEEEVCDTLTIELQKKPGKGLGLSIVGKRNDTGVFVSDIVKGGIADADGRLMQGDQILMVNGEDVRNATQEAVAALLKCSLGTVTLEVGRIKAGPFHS
Briefly: G' assay. Note: key of the grades not given here.

Test [7] deals with T7, GST-KIAA0303 PDZ domain 1 (Homo sapiens (Human)), O15021.
T7 chain: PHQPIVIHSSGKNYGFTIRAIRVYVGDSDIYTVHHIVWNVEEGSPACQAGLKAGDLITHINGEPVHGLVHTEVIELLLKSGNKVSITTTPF
Briefly: G' assay. Note: key of the grades not given here.

In test [8] the target is GST-PSD95 PDZ domains 1, 2, 3 (Homo sapiens), P78352. Briefly: G' assay. Note: key of the grades not given here.
Chain of GST-PSD95 PDZ domains 1, 2, 3 (Homo sapiens), P78352 (P78352 62-395): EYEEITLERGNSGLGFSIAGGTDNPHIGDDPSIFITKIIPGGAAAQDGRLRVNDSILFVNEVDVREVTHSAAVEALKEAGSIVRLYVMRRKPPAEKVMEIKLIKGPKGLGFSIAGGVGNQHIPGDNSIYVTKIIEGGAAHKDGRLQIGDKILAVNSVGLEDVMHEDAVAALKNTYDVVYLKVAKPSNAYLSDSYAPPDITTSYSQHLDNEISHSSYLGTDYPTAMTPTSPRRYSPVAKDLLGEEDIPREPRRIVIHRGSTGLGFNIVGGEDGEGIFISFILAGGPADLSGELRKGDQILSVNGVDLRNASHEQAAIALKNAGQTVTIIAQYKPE
Test [9] concerns the target T1, GST-BAI-1 Associated Protein PDZ domain …. Briefly: G' assay. Note: key of the grades not given here.
Test [10] has as its target T8, GST-DLG2 PDZ domain 2 (Homo sapiens (Human)), Q15700.
T8 chain: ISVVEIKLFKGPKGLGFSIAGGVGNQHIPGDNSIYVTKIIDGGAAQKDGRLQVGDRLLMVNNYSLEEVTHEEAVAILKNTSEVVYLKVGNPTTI
The experiment in a line: G' assay. Note: key of the grades not given here.

Test [11] addresses GST-PSD95 PDZ domain 1 (Homo sapiens). The experiment in a line: G' assay.
Test [12] has as its target T2, GST-PSD95 PDZ domain 3 (Homo sapiens). Briefly: G' assay.
For test [13], the target named is GST-DLG2 PDZ domain 1 (Homo sapiens (Human)), Q15700. Briefly: G' assay. Note: key of the grades not given here.
Test [14] concerns the target T9, GST-DLG1 PDZ domain 3 (Homo sapiens), Q12959.
T9 chain: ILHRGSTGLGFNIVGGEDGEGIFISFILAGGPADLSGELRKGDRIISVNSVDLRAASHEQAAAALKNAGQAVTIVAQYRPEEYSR
Briefly: G' assay.

For test [15], the target named is GST-KIAA1634 PDZ domain 1 (Homo sapiens (Human)), Q5TCQ9. The experiment in a line: G' assay. Note: key of the grades not given here.
Chain of GST-KIAA1634 PDZ domain 1 (Homo sapiens (Human)), Q5TCQ9 (Q5TCQ9 401-502): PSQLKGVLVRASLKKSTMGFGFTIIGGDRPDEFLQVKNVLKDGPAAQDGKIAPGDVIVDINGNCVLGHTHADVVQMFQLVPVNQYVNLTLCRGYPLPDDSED
Test [16] concerns the target GST-DLG1 PDZ domains 1, 2 (Homo sapiens), Q12959. Briefly: G' assay. Note: key of the grades not given here.
Test [17] has as its target T3, GST-NeDLG PDZ domains 1, 2, Q92796. The experiment in a line: G' assay.
Test [18] addresses GST-DLG1 PDZ domain 1 (Homo sapiens), Q12959. Briefly: G' assay. Note: key of the grades not given here.
For test [19], the target named is GST-KIAA0147 PDZ domain 1 (Homo sapiens (Human)), Q14160. The experiment in a line: G' assay. Note: key of the grades not given here.
Chain of GST-KIAA0147 PDZ domain 1 (Homo sapiens (Human)), Q14160 (Q14160 other isoform, or with tags, fused parts or gaps): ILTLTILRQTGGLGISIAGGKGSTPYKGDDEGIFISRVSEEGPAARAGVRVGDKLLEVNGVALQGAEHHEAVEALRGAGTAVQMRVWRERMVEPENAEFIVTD
Test [20] concerns the target T10, GST-KIAA1719 PDZ domain 3 (Homo sapiens (Human)), Q9C0E4.
T10 chain: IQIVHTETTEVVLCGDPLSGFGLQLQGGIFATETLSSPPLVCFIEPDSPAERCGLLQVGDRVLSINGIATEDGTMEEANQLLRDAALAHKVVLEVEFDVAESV
The experiment in a line: G' assay.

The target in test [21] is T11, GST-MUPP1 PDZ domain 10 (Homo sapiens (Human)), O75970.
T11 chain: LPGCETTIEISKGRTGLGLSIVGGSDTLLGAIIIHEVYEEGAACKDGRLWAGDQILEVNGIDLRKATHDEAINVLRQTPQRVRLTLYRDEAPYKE
Briefly: G' assay.

Test [22] concerns the target T12, GST-NeDLG PDZ domain 2 (Rattus norvegicus (Rat)), Q62936.
T12 chain: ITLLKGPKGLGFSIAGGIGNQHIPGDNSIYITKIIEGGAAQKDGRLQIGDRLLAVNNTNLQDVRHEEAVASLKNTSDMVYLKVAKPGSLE
Briefly: G' assay.

The target in test [23] is T13, GST-KIAA0807(S) PDZ domain 1 (Homo sapiens (Human)), Q6P0Q8.
T13 chain: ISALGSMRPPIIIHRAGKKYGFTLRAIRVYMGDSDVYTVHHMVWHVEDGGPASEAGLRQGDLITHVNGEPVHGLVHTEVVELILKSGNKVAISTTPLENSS
The experiment in a line: G' assay.

The target in test [24] is GST-Atrophin-1 Interacting Protein PDZ domain 1 (Rattus norvegicus (Rat)), O88382. Briefly: G' assay. Note: key of the grades not given here.
Chain of GST-Atrophin-1 Interacting Protein PDZ domain 1 (Rattus norvegicus (Rat)), O88382 (O88382 408-511): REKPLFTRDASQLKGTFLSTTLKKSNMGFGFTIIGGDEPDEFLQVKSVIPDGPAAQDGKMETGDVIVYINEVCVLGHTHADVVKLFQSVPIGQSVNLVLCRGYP
Test [25] has as its target T14, GST-Outer Membrane PDZ domain 1 (Homo sapiens (Human)), P57105.
T14 chain: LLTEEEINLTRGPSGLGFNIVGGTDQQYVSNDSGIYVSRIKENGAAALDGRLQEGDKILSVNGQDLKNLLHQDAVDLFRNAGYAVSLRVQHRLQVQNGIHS
Briefly: G' assay.

The target in test [26] is GST-DLG1 PDZ domains 1, 2 (Homo sapiens), Q12959. Briefly: G assay titration, PDZ 5 ug/ml.

T1 sequence (Q6RHR9 455-558): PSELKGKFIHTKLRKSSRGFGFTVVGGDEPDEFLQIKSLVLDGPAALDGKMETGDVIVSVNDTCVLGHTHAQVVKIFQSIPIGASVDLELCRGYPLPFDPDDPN

B1: GluR5-2 (rat) (peptide)
peptide: SFTSILTCHQRRTQRKETVA
modifications: not checked
On to B1, for which the Kd came to 300 nM in test [1], 100 nM in test [2] and 100 nM in [3]. The Classification was determined as 2 A450 class in test [4]; 2 A450 class in test [5]; 1 A450 class in test [6]; 1 A450 class in [7]; 5 A450 class in [8]; 5 A450 class in test [9]. Moreover, the Classification in test [10] worked out at 1 A450 class; in test [11] it was 3 A450 class; in test [12], 5 A450 class; in test [13] it was 1 A450 class; in test [14], 1 A450 class; in test [15], 5 A450 class. Besides, the Classification in [16] amounted to 5 A450 class; in test [17] it was 5 A450 class; in test [18], 2 A450 class; in test [19], 2 A450 class; in test [20], 1 A450 class; in [21] it was 2 A450 class. The Classification in [22], in [23] and in [24] was 1 A450 class each time.

B2: Kir2.1 (inwardly rect. K+ channel) (peptide)
peptide: LHNQASVPLEPRPLRRESEI
modifications: not checked
B2: the Classification was found to be 1 A450 class in [5]; 4 A450 class in test [25]; 2 A450 class in test [8]; 1 A450 class in [10]; 1 A450 class in test [15]; 2 A450 class in test [16]. Also, the Classification in test [17] and in [24] was 1 A450 class throughout. The molecule further showed a Kd in test [26] of 5000 nM.
